The source of these data is doi:10.1101/2025.11.04.686334 (bioRxiv, 2025).

The assay concerns the target HA head domain of A/Hong Kong/1/1968 (H3N2) (Influenza A virus A/Hong Kong/1/1968 …, strain). The assay can be described thus: ELISA. The note with it: both partners purified. A general note: An ELISA detects its analyte on a solid surface through an enzyme-linked reagent.

B1: FluA-20 mAb (antibody, V domains shown)
VH: QVQLEESGPGLVKPSETLSLTCSVSGVSVTSDIYYWTWIRQPPGKGLEWIGYIFYNGDTNYNPSLKSRVTMSIDTSKNEFSLRLTSVTAADTAVYFCARGTEDLGYCSSGSCPNHWGQGTLVTVSS
VL: DIVMTQSPSSLSASIGDRVTITCRPSQNIRSFLNWFQHKPGKAPKLLIYAASNLQSGVPSRFSGSGSGTEFTLTIRSLQPEDFATYYCQQSYNTPPTFGQGTKVEIK
Consider B1, for which the binding result is recorded as “binds”.
